Experimental data reported in FireProtDB (doi:10.1021/bi0015717).
Where “and” joins values, the source holds several entries; their conditions need not be identical. Identical values can stand only once.

B1: Lysozyme C, P61626 (parent)
chain: MKALIVLGLVLLSVTVQGKVFERCELARTLKRLGMDGYRGISLANWMCLAKWESGYNTRATNYNAGDRSTDYGIFQINSRYWCNDGKTPGAVNACHLSCSALLQDNIADAVACAKRVVRDPQGIRAWVAWRNRCQNRDVRQYVQGCGV

Variants of: B1
Conditions: Homo sapiens; pH 2.68; Thermal; DSC; glycine-HCl 0.05 M; reversible: yes; structure 1LZ1; whole UniProt chain shown

Variant	Tm	unfolding enthalpy (calorimetric)
V20F	62 °C	106 kcal/mol

Same assay, conditions: Homo sapiens; pH 2.7; 64.9 °C; Thermal; DSC; glycine-HCl 0.05 M; reversible: yes; structure 1LZ1; whole UniProt chain shown

Variant	ddG of mutation (higher = less stable)
V20F	0.86 kcal/mol
V20M	0.31 kcal/mol
V128F	0.05 kcal/mol
V128L	-0.07 kcal/mol
V128G	-0.48 kcal/mol
V128I	-0.86 kcal/mol

Same assay, conditions: Homo sapiens; pH 2.7; Thermal; DSC; glycine-HCl 0.05 M; reversible: yes; structure 1LZ1; whole UniProt chain shown

Variant	Tm	change of melting temperature, mutant - wild type (higher = more stable)	heat capacity change of unfolding	unfolding enthalpy (calorimetric)
V20F	62.2 °C and 64.9 °C	-2.7 °C	1.63 kcal/mol/K	110 kcal/mol
V20M	63.9 °C	-1 °C	1.55 kcal/mol/K	113 kcal/mol
V128F	64.7 °C and 64.9 °C	-0.2 °C	1.7 kcal/mol/K	101 kcal/mol
V128L	65 °C and 65.1 °C and 64.9 °C	0.2 °C	1.29 kcal/mol/K	108 kcal/mol and 109 kcal/mol
V128G	66.5 °C and 64.9 °C	1.6 °C	1.82 kcal/mol/K	99.9 kcal/mol
V128I	67.3 °C and 67.6 °C and 64.9 °C	2.7 °C	1.65 kcal/mol/K	111 kcal/mol and 107 kcal/mol
V128M	66.3 °C and 66.5 °C and 64.9 °C	1.6 °C	1.41 kcal/mol/K	114 kcal/mol and 112 kcal/mol

Same assay, conditions: Homo sapiens; pH 2.87; Thermal; DSC; glycine-HCl 0.05 M; reversible: yes; structure 1LZ1; whole UniProt chain shown

Variant	Tm	unfolding enthalpy (calorimetric)
V20F	65 °C	110 kcal/mol

Same assay, conditions: Homo sapiens; pH 3.09; Thermal; DSC; glycine-HCl 0.05 M; reversible: yes; structure 1LZ1; whole UniProt chain shown

Variant	Tm	unfolding enthalpy (calorimetric)
V20F	68.6 °C	116 kcal/mol
V20M	70.6 °C	122 kcal/mol

Same assay, conditions: Homo sapiens; pH 3.22; Thermal; DSC; glycine-HCl 0.05 M; reversible: yes; structure 1LZ1; whole UniProt chain shown

Variant	Tm	unfolding enthalpy (calorimetric)
V20F	71.2 °C	121 kcal/mol

Same assay, conditions: Homo sapiens; pH 2.52; Thermal; DSC; glycine-HCl 0.05 M; reversible: yes; structure 1LZ1; whole UniProt chain shown

Variant	Tm	unfolding enthalpy (calorimetric)
V20M	60.6 °C	106 kcal/mol

Same assay, conditions: Homo sapiens; pH 2.73; Thermal; DSC; glycine-HCl 0.05 M; reversible: yes; structure 1LZ1; whole UniProt chain shown

Variant	Tm	unfolding enthalpy (calorimetric)
V20M	64.5 °C	112 kcal/mol

Same assay, conditions: Homo sapiens; pH 2.94; Thermal; DSC; glycine-HCl 0.05 M; reversible: yes; structure 1LZ1; whole UniProt chain shown

Variant	Tm	unfolding enthalpy (calorimetric)
V20M	68.3 °C	118 kcal/mol
V128G	70.6 °C	110 kcal/mol

Same assay, conditions: Homo sapiens; pH 3.31; Thermal; DSC; glycine-HCl 0.05 M; reversible: yes; structure 1LZ1; whole UniProt chain shown

Variant	Tm	unfolding enthalpy (calorimetric)
V20M	74.2 °C	127 kcal/mol

Same assay, conditions: Homo sapiens; pH 2.72; Thermal; DSC; glycine-HCl 0.05 M; reversible: yes; structure 1LZ1; whole UniProt chain shown

Variant	Tm	unfolding enthalpy (calorimetric)
V128F	65.1 °C	101 kcal/mol

Same assay, conditions: Homo sapiens; pH 2.8; Thermal; DSC; glycine-HCl 0.05 M; reversible: yes; structure 1LZ1; whole UniProt chain shown

Variant	Tm	unfolding enthalpy (calorimetric)
V128F	66.3 °C	103 kcal/mol

Same assay, conditions: Homo sapiens; pH 3.04; Thermal; DSC; glycine-HCl 0.05 M; reversible: yes; structure 1LZ1; whole UniProt chain shown

Variant	Tm	unfolding enthalpy (calorimetric)
V128F	70.5 °C	110 kcal/mol

Same assay, conditions: Homo sapiens; pH 2.5; Thermal; DSC; glycine-HCl 0.05 M; reversible: yes; structure 1LZ1; whole UniProt chain shown

Variant	Tm	unfolding enthalpy (calorimetric)
V128L	61.9 °C	105 kcal/mol

Same assay, conditions: Homo sapiens; pH 2.82; Thermal; DSC; glycine-HCl 0.05 M; reversible: yes; structure 1LZ1; whole UniProt chain shown

Variant	Tm	unfolding enthalpy (calorimetric)
V128L	67 °C	111 kcal/mol

Same assay, conditions: Homo sapiens; pH 3.03; Thermal; DSC; glycine-HCl 0.05 M; reversible: yes; structure 1LZ1; whole UniProt chain shown

Variant	Tm	unfolding enthalpy (calorimetric)
V128L	70.5 °C	115 kcal/mol

Same assay, conditions: Homo sapiens; pH 3.25; Thermal; DSC; glycine-HCl 0.05 M; reversible: yes; structure 1LZ1; whole UniProt chain shown

Variant	Tm	unfolding enthalpy (calorimetric)
V128L	74.5 °C	121 kcal/mol

Same assay, conditions: Homo sapiens; pH 2.6; Thermal; DSC; glycine-HCl 0.05 M; reversible: yes; structure 1LZ1; whole UniProt chain shown

Variant	Tm	unfolding enthalpy (calorimetric)
V128G	64.6 °C	99.9 kcal/mol

Same assay, conditions: Homo sapiens; pH 3.11; Thermal; DSC; glycine-HCl 0.05 M; reversible: yes; structure 1LZ1; whole UniProt chain shown

Variant	Tm	unfolding enthalpy (calorimetric)
V128G	73.4 °C	115 kcal/mol

Same assay, conditions: Homo sapiens; pH 3.3; Thermal; DSC; glycine-HCl 0.05 M; reversible: yes; structure 1LZ1; whole UniProt chain shown

Variant	Tm	unfolding enthalpy (calorimetric)
V128G	76.6 °C	122 kcal/mol

Same assay, conditions: Homo sapiens; pH 2.53; Thermal; DSC; glycine-HCl 0.05 M; reversible: yes; structure 1LZ1; whole UniProt chain shown

Variant	Tm	unfolding enthalpy (calorimetric)
V128I	64.9 °C	107 kcal/mol

Same assay, conditions: Homo sapiens; pH 2.9; Thermal; DSC; glycine-HCl 0.05 M; reversible: yes; structure 1LZ1; whole UniProt chain shown

Variant	Tm	unfolding enthalpy (calorimetric)
V128I	70.9 °C	117 kcal/mol

Same assay, conditions: Homo sapiens; pH 3.13; Thermal; DSC; glycine-HCl 0.05 M; reversible: yes; structure 1LZ1; whole UniProt chain shown

Variant	Tm	unfolding enthalpy (calorimetric)
V128I	74.9 °C	123 kcal/mol

Same assay, conditions: Homo sapiens; pH 3.23; Thermal; DSC; glycine-HCl 0.05 M; reversible: yes; structure 1LZ1; whole UniProt chain shown

Variant	Tm	unfolding enthalpy (calorimetric)
V128I	76.8 °C	127 kcal/mol

Same assay, conditions: Homo sapiens; pH 2.48; Thermal; DSC; glycine-HCl 0.05 M; reversible: yes; structure 1LZ1; whole UniProt chain shown

Variant	Tm	unfolding enthalpy (calorimetric)
V128M	62.8 °C	109 kcal/mol

Same assay, conditions: Homo sapiens; pH 3.06; Thermal; DSC; glycine-HCl 0.05 M; reversible: yes; structure 1LZ1; whole UniProt chain shown

Variant	Tm	unfolding enthalpy (calorimetric)
V128M	72.8 °C	123 kcal/mol
